Laboratory results as given in the supplement of paper PMC11246515.
± gives the standard deviation of the averaged measurements.

Assay: total protein half-life in vivo (active degradation + dilution); higher = more stable protein
[1] = E. coli NCM3722 delta-clpP delta-lon delta-hslV, growth: N-lim chemostat, doubling time 6 h
[2] = E. coli NCM3722 delta-hslV, growth: N-lim chemostat, doubling time 6 h
[3] = E. coli NCM3722 delta-lon, growth: N-lim chemostat, doubling time 6 h
[4] = E. coli NCM3722 delta-smpB, growth: N-lim chemostat, doubling time 6 h
[5] = wild type E. coli NCM3722, growth: C-lim chemostat, doubling time 6 h
[6] = wild type E. coli NCM3722, growth: N-lim chemostat, doubling time 6 h
[7] = wild type E. coli NCM3722, growth: N-lim chemostat, doubling time 12 h
[8] = wild type E. coli NCM3722, growth: P-lim chemostat, doubling time 6 h
[9] = wild type E. coli NCM3722, growth: P-lim chemostat, doubling time 12 h
[10] = E. coli NCM3722 delta-clpP, growth: N-lim chemostat, doubling time 6 h
[11] = wild type E. coli NCM3722, growth: C-lim chemostat, doubling time 3 h
[12] = wild type E. coli NCM3722, growth: C-lim chemostat, doubling time 12 h

| Sequence | total protein half-life in vivo [1] [h] | total protein half-life in vivo [2] [h] | total protein half-life in vivo [3] [h] | total protein half-life in vivo [4] [h] | total protein half-life in vivo [5] [h] | total protein half-life in vivo [6] [h] | total protein half-life in vivo [7] [h] | total protein half-life in vivo [8] [h] | total protein half-life in vivo [9] [h] | total protein half-life in vivo [10] [h] | total protein half-life in vivo [11] [h] | total protein half-life in vivo [12] [h] |
| --- | --- | --- | --- | --- | --- | --- | --- | --- | --- | --- | --- | --- |
| MIDYEVLRFIWWLLVGVLLIGFAVTDGFDMGVGMLTRFLGRNDTERRIMINSIAPHWDGNQVWLITAGGALFAAWPMVYAAAFSGFYVAMILVLASLFFRPVGFDYRSKIEETRWRNMWDWGIFIGSFVPPLVIGVAFGNLLQGVPFNVDEYLRLYYTGNFFQLLNPFGLLAGVVSVGMIITQGATYLQMRTVGELHLRTRATAQVAALVTLVCFALAGVWVMYGIDGYVVKSTMDHYAASNPLNKEVVREAGAWLVNFNNTPILWAIPALGVVLPLLTILTARMDKAAWAFVFSSLTLACIILTAGIAMFPFVMPSSTMMNASLTMWDATSSQLTLNVMTWVAVVLVPIILLYTAWCYWKMFGRITKEDIERNTHSLY [P0ABK2] | > 8 | 6.72 | 5.91 | 5.4 | 6.31 | 6.61 | 12.2 ± 1.9 | 6.45 ± 0.17 | 12.9 ± 0.13 |  |  |  |
| MSDISKASLPKAIFLMGPTASGKTALAIELRKILPVELISVDSALIYKGMDIGTAKPNAEELLAAPHRLLDIRDPSQAYSAADFRRDALAEMADITAAGRIPLLVGGTMLYFKALLEGLSPLPSADPEVRARIEQQAAEQGWESLHRQLQEVDPVAAARIHPNDPQRLSRALEVFFISGKTLTELTQTSGDALPYQVHQFAIAPASRELLHQRIEQRFHQMLASGFEAEVRALFARGDLHTDLPSIRCVGYRQMWSYLEGEISYDEMVYRGVCATRQLAKRQITWLRGWEGVHWLDSEKPEQARDEVLQVVGAIAG |  | 5.26 ± 1.1 | 5.42 ± 0.37 | 4.279 ± 0.03 | 5.47 ± 0.15 | 4.32 ± 0.4 | 6.84 ± 1.1 | 5.67 ± 0.43 | 11.71 ± 0.1 | 4.338 ± 0.019 | 3.18 ± 0.12 | 8.97 ± 0.41 |
| MKPLSSPLQQYWQTVVERLPEPLAEESLSAQAKSVLTFSDFVQDSVIAHPEWLTELESQPPQADEWQHYAAWLQEALCNVSDEAGLMRELRLFRRRIMVRIAWAQTLALVTEESILQQLSYLAETLIVAARDWLYDACCREWGTPCNAQGEAQPLLILGMGKLGGGELNFSSDIDLIFAWPEHGCTQGGRRELDNAQFFTRMGQRLIKVLDQPTQDGFVYRVDMRLRPFGESGPLVLSFAALEDYYQEQGRDWERYAMVKARIMGDSEGVYANELRAMLRPFVFRRYIDFSVIQSLRNMKGMIAREVRRRGLTDNIKLGAGGIREIEFIVQVFQLIRGGREPSLQSRSLLPTLSAIAELHLLSENDAEQLRVAYLFLRRLENLLQSINDEQTQTLPSDELNRARLAWAMDFADWPQLTGALTAHMTNVRRVFNELIGDDESETQEESLSEQWRELWQDALQEDDTTPVLAHLSEDDRKQVLTLIADFRKELDKRTIGPRGRQVLDHLMPHLLSDVCAREDAAVTLSRITALLVGIVTRTTYLELLSEFPAALKHLISLCAASPMIASQLARYPLLLDELLDPNTLYQPTATDAYRDELRQYLLRVPEDDEEQQLEALRQFKQAQLLRIAAADIAGTLPVMKVSDHLTWLAEAMIDAVVQQAWVQMVARYGKPNHLNEREGRGFAVVGYGKLGGWELGYSSDLDLIFLHDCPMDAMTDGEREIDGRQFYLRLAQRIMHLFSTRTSSGILYEVDARLRPSGAAGMLVTSAEAFADYQKNEAWTWEHQALVRARVVYGDPQLTAHFDAVRREIMTLPREGKTLQTEVREMREKMRAHLGNKHRDRFDIKADEGGITDIEFITQYLVLRYAHEKPKLTRWSDNVRILELLAQNDIMEEQEAMALTRAYTTLRDELHHLALQELPGHVSEDCFTAERELVRASWQKWLVEE | 4.99 ± 0.16 | 4.215 ± 0.0047 | 5.2 ± 0.75 | 4.64 ± 0.27 | 6.65 ± 1.2 | 4.22 ± 0.24 | 7.85 ± 0.1 | 6.33 ± 0.28 | 13.3 ± 1.3 | 4.75 ± 0.75 | 3.414 ± 0.027 | 12.9 ± 0.85 |
| MMNPVLWLQMTNMISYQGLVRTFLNKNDLKAFIAFPSSLYPDDPNWIPPLFIERNEHLSAKNPGTDHIIWQAWVAKKAGQIVGRITAQIDTLHRERYGKDTGHFGMIDAIDDPQVFAALFGAAEAWLKSQGASKISGPFSLNINQESGLLIEGFDTPPCAMMPHGKPWYAAHIEQLGYHKGIDLLAWWMQRTDLTFSPALKKLMDQVRKKVTIRCINRQRFAEEMQILREIFNSGWQHNWGFVPFTEHEFATMGDQLKYLVPDDMIYIAEIDSAPCAFIVGLPNINEAIADLNGSLFPFGWAKLLWRLKVSGVRTARVPLMGVRDEYQFSRIGPVIALLLIEALRDPFARRKIDALEMSWILETNTGMNNMLERIGAEPYKRYRLYEKQI |  | 2.23 |  | 3.38 |  |  |  |  |  |  |  |  |
| MLSIFKPAPHKARLPAAEIDPTYRRLRWQIFLGIFFGYAAYYLVRKNFALAMPYLVEQGFSRGDLGFALSGISIAYGFSKFIMGSVSDRSNPRVFLPAGLILAAAVMLFMGFVPWATSSIAVMFVLLFLCGWFQGMGWPPCGRTMVHWWSQKERGGIVSVWNCAHNVGGGIPPLLFLLGMAWFNDWHAALYMPAFCAILVALFAFAMMRDTPQSCGLPPIEEYKNDYPDDYNEKAEQELTAKQIFMQYVLPNKLLWYIAIANVFVYLLRYGILDWSPTYLKEVKHFALDKSSWAYFLYEYAGIPGTLLCGWMSDKVFRGNRGATGVFFMTLVTIATIVYWMNPAGNPTVDMICMIVIGFLIYGPVMLIGLHALELAPKKAAGTAAGFTGLFGYLGGSVAASAIVGYTVDFFGWDGGFMVMIGGSILAVILLIVVMIGEKRRHEQLLQERNGG |  |  |  |  | 6.02 ± 0.41 |  |  |  |  |  |  | 11.8 ± 1.2 |
| MILERVEIVGFRGINRLSLMLEQNNVLIGENAWGKSSLLDALTLLLSPESDLYHFERDDFWFPPGDINGREHHLHIILTFRESLPGRHRVRRYRPLEACWTPCTDGYHRIFYRLEGESAEDGSVMTLRSFLDKDGHPIDVEDINDQARHLVRLMPVLRLRDARFMRRIRNGTVPNVPNVEVTARQLDFLARELSSHPQNLSDGQIRQGLSAMVQLLEHYFSEQGAGQARYRLMRRRASNEQRSWRYLDIINRMIDRPGGRSYRVILLGLFATLLQAKGTLRLDKDARPLLLIEDPETRLHPIMLSVAWHLLNLLPLQRIATTNSGELLSLTPVEHVCRLVRESSRVAAWRLGPSGLSTEDSRRISFHIRFNRPSSLFARCWLLVEGETETWVINELARQCGHHFDAEGIKVIEFAQSGLKPLVKFARRMGIEWHVLVDGDEAGKKYAATVRSLLNNDREAEREHLTALPALDMEHFMYRQGFSDVFHRMAQIPENVPMNLRKIISKAIHRSSKPDLAIEVAMEAGRRGVDSVPTLLKKMFSRVLWLARGRAD | 6.44 ± 0.23 |  |  |  |  |  |  |  |  | 2.21 |  |  |
| MANWQSIDELQDIASDLPRFIHALDELSRRLGLNITPLTADHISLRCHQNATAERWRRGFEQCGELLSENMINGRPICLFKLHEPVQVAHWQFSIVELPWPGEKRYPHEGWEHIEIVLPGDPETLNARALALLSDEGLSLPGISVKTSSPKGEHERLPNPTLAVTDGKTTIKFHPWSIEEIVASEQSA | 5.34 ± 1.4 | 2.73 ± 0.29 | 3.16 ± 0.24 | 3.04 ± 0.023 | 3.62 ± 1.4 | 3.3 | 3.66 | 3.83 | 6.37 ± 1.2 | 3.77 ± 0.15 | 2.231 ± 0.0095 | 5.25 ± 0.3 |
| MDQVVIFKQIFDKVRNDLNYQWFYSELKRHNVSHYIYYLATENVHIVLKNDNTVLLKGLKNIVSVKFSKDRHLIETTSNKLKSREITFQEYRRNLAKAGVFRWVTNIHEQKRYYYTFDNSLLFTESIQKTTQILPR |  |  |  |  | 4.33 |  |  |  | 5.25 |  |  |  |
